Substrate: NC(=O)c1ccc[n+]([C@@H]2O[C@H](COP(=O)(O)OP(=O)(O)OC[C@H]3O[C@@H](n4cnc5c(N)ncnc54)[C@H](O)[C@@H]3O)[C@@H](O)[C@H]2O)c1
Experiment: steady-state kinetics, soluble enzyme and soluble NAD+
Type: biochemical, [Candida] boidinii
Conditions: free enzyme; co-substrate formate

B1: Cb‐FDH ([Candida] boidinii) (protein)
chain: MKIVLVLYDAGKHAADEEKLYGCTENKLGIANWLKDQGHELITTSDKEGETSELDKHIPDADIIITTPFHPAYITKERLDKAKNLKLVVVAGVGSDHIDLDYINQTGKKISVLEVTGSNVVSVAEHVVMTMLVLVRNFVPAHEQIINHDWEVAAIAKDAYDIEGKTIATIGAGRIGYRVLERLLPFNPKELLYYDYQALPKEAEEKVGARRVENIEELVAQADIVTVNAPLHAGTKGLINKELLSKFKKGAWLVNTARGAICVAEDVAAALESGQLRGYGGDVWFPQPAPKDHPWRDMRNKYGAGNAMTPHYSGTTLDAQTRYAEGTKNILESFFTGKFDYRPQDIILLNGEYVTKAYGKHDKK
notes: free soluble enzyme
With B1 as the protein, how does the Km read?
Its Km is 85 ± 0.9 µM.

— PMC5299495, “Co‐immobilized Phosphorylated Cofactors and Enzymes as Self‐Sufficient Heterogeneous Biocatalysts for Chemical Processes” (Angewandte Chemie (International Ed. in English), 2016)
